A short description of the data set: Analytical ultracentrifugation (AUC) of assembled peptidic nanoparticles. Format: physicochemical.

B1: Trimer(Foldon)Cys11—Linker—COMP (protein)
chain: GSGYIPEAPRCGQAYVRKDGEWVLLSTFLGGSGLAPQMLRELQETNAALQDVRELLRQQVKQITFLKNTVMECDACG
B1 registered a No. of monomers (Example 5 preparation 1 (dissolved directly, 2 mM DTT), 0.3 mg/ml) of 10.1; a No. of monomers (Example 5 preparation 1 (dissolved directly, 2 mM DTT), 0.6 mg/ml) of 9.8; a No. of monomers (Example 5 preparation 1 (dissolved directly, 2 mM DTT), 1.2 mg/ml) of 11.3; a No. of monomers (Example 5 preparation 2 (refolded from 8 M urea), 0.24 mg/ml) of 15.1; a No. of monomers (Example 5 preparation 2 (refolded from 8 M urea), 0.4 mg/ml) of 14.3; a No. of monomers (Example 5 preparation 2 (refolded from 8 M urea), 1.2 mg/ml) of 14.8. Besides, the No. of monomers (Example 5 preparation 2 (refolded from 8 M urea), concentration independent, one even unit) is recorded as 15.

B2: Trimer(Foldon)Cys11—COMP (protein)
chain: GSGYIPEAPRCGQAYVRKDGEWVLLSTFLGGLAPQMLRELQETNAALQDVRELLRQQVKQITFLKNTVMECDACG
notes: Recombinant foldon, two-glycine linker, COMP peptide; residue Asp 11 replaced by a cystein residue
In the case of B2, the No. of monomers runs as follows: (Example 4 preparation 1 (no DTT), 0.2 mg/ml) 9.0; (Example 4 preparation 2 (2 mM DTT), 0.2 mg/ml) 11.2.
